Each block holds one binder with its values, some of them ahead of it.
What was measured:
[1] = target: T1, human FcγRIa extracellular domain (human, UniProt P12314 16-292); test: SPR Biacore 8K+; KD of G1d divided by KD of this antibody;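 also: antibodies captured on an anti-Fab-kappa streptavidin chip, soluble FcγR ectodomains flowed over, KD by steady-state fit for FcγRIIb and Langmuir kinetic model for the other receptors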
T1 construct: extracellular domain; also called hFcγR Ia; hFcγRIa

[2] = target: T2, human FcγRIIb extracellular domain (human, UniProt P31994 43-217); test: as above
T2 construct: extracellular domain; also called hFcγR IIb
T2 sequence (looked up): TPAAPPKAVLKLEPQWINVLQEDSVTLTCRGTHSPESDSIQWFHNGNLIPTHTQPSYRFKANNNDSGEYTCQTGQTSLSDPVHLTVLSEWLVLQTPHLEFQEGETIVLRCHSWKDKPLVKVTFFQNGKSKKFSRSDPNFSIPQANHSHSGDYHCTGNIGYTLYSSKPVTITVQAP

[3] = target: T3, human FcγRIIa H extracellular domain (human, UniProt P12318 34-217); test: as above
T3 construct: extracellular domain; also called hFcγR IIa H
T3 sequence (looked up): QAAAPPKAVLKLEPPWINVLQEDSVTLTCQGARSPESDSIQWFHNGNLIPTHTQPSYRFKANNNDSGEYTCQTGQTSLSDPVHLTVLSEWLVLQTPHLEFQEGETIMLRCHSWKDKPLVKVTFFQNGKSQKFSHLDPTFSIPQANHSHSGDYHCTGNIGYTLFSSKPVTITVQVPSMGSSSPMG

[4] = target: T4, human FcγRIIIa V extracellular domain (human, UniProt P08637 17-208); test: as above
T4 construct: extracellular domain; also called hFcγR IIIa V
T4 sequence (P08637 17-208 F176V limits assumed): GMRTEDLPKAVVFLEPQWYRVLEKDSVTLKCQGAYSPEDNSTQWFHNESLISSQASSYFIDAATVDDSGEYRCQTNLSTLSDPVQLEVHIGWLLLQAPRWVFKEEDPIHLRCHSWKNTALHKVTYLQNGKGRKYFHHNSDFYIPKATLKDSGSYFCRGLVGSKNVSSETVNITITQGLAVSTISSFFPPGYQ

[5] = target: T5, human FcγRIIa R extracellular domain (human, UniProt P12318 34-217); test: as above
T5 construct: extracellular domain; also called hFcγR IIa R
T5 sequence (looked up): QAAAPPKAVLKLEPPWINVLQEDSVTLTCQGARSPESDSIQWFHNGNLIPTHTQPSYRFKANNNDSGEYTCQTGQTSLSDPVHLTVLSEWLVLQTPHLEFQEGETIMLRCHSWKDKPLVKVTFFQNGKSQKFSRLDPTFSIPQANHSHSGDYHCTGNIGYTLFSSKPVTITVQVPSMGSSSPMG

[6] = target: T6, human FcγRIIIa F extracellular domain (human, UniProt P08637 17-208); test: as above
T6 construct: extracellular domain; also called hFcγR IIIa F
T6 sequence (P08637 17-208): as the sequence (P08637 17-208 F176V limits assumed) above, with V160F counted along it

[7] = target: T1, human FcγRIa extracellular domain; test: SPR Biacore 8K+, antibody captured, FcγR as analyte, 1:1 Langmuir model;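 also: antibodies captured on a streptavidin chip through a biotinylated anti-human Fab kappa reagent, with FcγR extracellular domains injected in pH 7.4 phosphate buffer at 25 °C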
[8] = target: T3, human FcγRIIa H extracellular domain; test: as above
[9] = target: T4, human FcγRIIIa V extracellular domain; test: as above
[10] = target: T5, human FcγRIIa R extracellular domain; test: as above
[11] = target: T6, human FcγRIIIa F extracellular domain; test: as above
[12] = target: T3, human FcγRIIa H extracellular domain; test: SPR Biacore 8K+; KD for FcγRIIb divided by KD for this FcγR;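 also: antibodies captured on an anti-human Fab kappa SA chip with soluble human FcγR ectodomains flowed over, FcγRIIb KD from steady-state fit, other FcγR KD from Langmuir model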
[13] = target: T4, human FcγRIIIa V extracellular domain; test: as above
[14] = target: T5, human FcγRIIa R extracellular domain; test: as above
[15] = target: T6, human FcγRIIIa F extracellular domain; test: as above
[16] = target: T2, human FcγRIIb extracellular domain; test: SPR Biacore 8K+, antibody captured, FcγR as analyte, steady state affinity model
Method: The interaction between the produced antibodies and human FcγRs was analyzed using Biacore 8K+ by the method below. For the running buffer, 50 mM Na-Phosphate, 150 mM NaCl, and 0.05% Tween20 (pH 7.4) was used, and measurement was performed at 25° C. The sensor chip used was a Series S SA chip (GE Healthcare) onto which CaptureSelect Human Fab-kappa Kinetics Biotin Conjugate (Thermo Fisher Scientific) was immobilized. An antibody of interest was captured onto this chip, and each FcγR diluted with the running buffer was allowed to interact with it. The chip was regenerated using 10 mM Glycine-HCl (pH 1.5), and repeatedly used to capture antibodies and perform measurement. The dissociation constants KD (mol/L) of each antibody for FcγRs were calculated using Biacore Insight Evaluation Software, with a steady state affinity model for the dissociation constant for FcγRIIb and a 1:1 Langmuir binding model for the dissociation constants for the other FcγRs (Table 48).

[17] = target: T7, human FcγRIIb extracellular domain with C-terminal His-tag (human, UniProt P31994 43-217); test: SPR; binding amount divided by that of 04H1637-G1m/04L1610-lam1
T7 construct: extracellular domain; also called hFcγR IIb
T7 sequence (looked up): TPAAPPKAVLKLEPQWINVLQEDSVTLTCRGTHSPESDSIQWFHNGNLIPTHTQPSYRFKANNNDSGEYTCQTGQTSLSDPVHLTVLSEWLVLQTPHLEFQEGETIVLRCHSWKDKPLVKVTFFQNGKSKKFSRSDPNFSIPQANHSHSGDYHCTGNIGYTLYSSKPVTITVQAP

[18] = target: T8, human FcγRIIIa F allotype extracellular domain with C-terminal His-tag (human, UniProt P08637 17-208); test: SPR; KD of 04H1637-G1m/04L1610-lam1 divided by KD of variant;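 also: biacore T200 SPR at 25 °C, antibodies captured on anti-Fab-lambda SA chip with receptor as analyte, running buffer pH 7.4 for FcγRs and pH 6.0 for FcRn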
T8 construct: extracellular domain; also called hFcγR IIIa F
T8 sequence (P08637 17-208): as the sequence (P08637 17-208 F176V limits assumed) above, with V160F counted along it
Method: (§1) The interaction between the generated antibodies and human FcγRs was analyzed by the following method using Biacore T200. 50 mM Na-Phosphate, 150 mM NaCl, 0.05% Tween20 (pH 7.4) was used as the running buffer, and the assay was performed at 25° C. For the sensor chips, Series S SA (GE Healthcare) chips onto which CaptureSelect Human Fab-lambda Kinetics Biotin Conjugate (Thermo Fisher Scientific) was immobilized were used. The antibodies of interest were captured onto these chips and each FcγR diluted in the running buffer was allowed to interact with them. Chips were regenerated with 10 mM Glycine-HCl (pH 1.5) and 25 mM NaOH, and assay was performed by repeatedly capturing antibodies. The dissociation constants KD (mol/L) for FcγRs of each antibody were calculated using Biacore T200 Evaluation Software 2.0, using the 1:1 Langmuir binding model for FcγRIa and FcγRIIIa and the steady state affinity model for FcγRIIa. For FcγRIIb, the binding amount of FcγRIIb per unit amount of antibody was calculated by correcting the binding amount of FcγRIIb obtained from the sensorgram obtained by the measurement with the amount of antibody captured onto the chip surface.
(§2) The interaction between the generated antibodies and human FcRn was analyzed by the following method using Biacore T200. 50 mM Na-Phosphate, 150 mM NaCl, 0.05% Tween20 (pH 6.0) was used as the running buffer, and the assay was performed at 25° C. For the sensor chip, Series S SA (GE Healthcare) chips onto which CaptureSelect Human Fab-lambda Kinetics Biotin Conjugate (Thermo Fisher Scientific) was immobilized were used. The antibodies of interest were captured onto these chips and FcRn diluted in the running buffer was allowed to interact with them. Chips were regenerated with 10 mM Glycine-HCl (pH 1.5) and 25 mM NaOH, and assay was performed by repeatedly capturing antibodies. The dissociation constant for FcRn of each antibody was calculated using the steady state model, using Biacore T200 Evaluation Software 2.0.

[19] = target: T9, human FcγRIIa H allotype extracellular domain with C-terminal His-tag (human, UniProt P12318 34-217); test: as above
T9 construct: extracellular domain; also called hFcγR IIa H
T9 sequence (looked up): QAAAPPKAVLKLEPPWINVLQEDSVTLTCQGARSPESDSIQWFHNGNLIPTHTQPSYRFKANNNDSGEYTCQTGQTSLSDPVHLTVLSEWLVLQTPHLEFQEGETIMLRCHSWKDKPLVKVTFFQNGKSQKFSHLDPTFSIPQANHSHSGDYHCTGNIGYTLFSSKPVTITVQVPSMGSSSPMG
Method: as §1, §2

[20] = target: T10, human FcγRIIa R allotype extracellular domain with C-terminal His-tag (human, UniProt P12318 34-217); test: as above
T10 construct: extracellular domain; also called hFcγR IIa R
T10 sequence (looked up): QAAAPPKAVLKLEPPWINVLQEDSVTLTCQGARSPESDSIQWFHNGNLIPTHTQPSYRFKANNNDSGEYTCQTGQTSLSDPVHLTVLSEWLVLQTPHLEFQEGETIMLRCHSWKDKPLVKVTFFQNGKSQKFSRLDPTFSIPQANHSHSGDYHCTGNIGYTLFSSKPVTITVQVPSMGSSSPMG
Method: as §1, §2

[21] = target: T11, human FcγRIa extracellular domain with C-terminal His-tag (human, UniProt P12314 16-292); test: as above
T11 construct: extracellular domain; also called hFcγR Ia; hFcγRIa
T11 sequence (P12314 16-292): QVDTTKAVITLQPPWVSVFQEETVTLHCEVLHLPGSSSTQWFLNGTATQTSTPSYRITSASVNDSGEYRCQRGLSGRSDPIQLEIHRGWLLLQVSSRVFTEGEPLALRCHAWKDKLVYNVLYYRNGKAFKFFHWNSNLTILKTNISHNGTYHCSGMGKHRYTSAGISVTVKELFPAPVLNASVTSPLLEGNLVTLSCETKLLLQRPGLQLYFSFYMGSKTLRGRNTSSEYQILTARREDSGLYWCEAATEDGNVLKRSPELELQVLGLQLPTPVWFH
Method: as §1, §2

[22] = target: T12, human FcγRIIIa V allotype extracellular domain with C-terminal His-tag (human, UniProt P08637 17-208); test: as above
T12 construct: extracellular domain; also called hFcγR IIIa V
T12 sequence (P08637 17-208 F176V): as the sequence (P08637 17-208 F176V limits assumed) above
Method: as §1, §2

[23] = target: T7, human FcγRIIb extracellular domain with …; test: SPR; FcγRIIb at 1000 nM, bound amount per unit captured Ab
Method: as §1

[24] = target: T8, human FcγRIIIa F allotype extracellular …; test: SPR Biacore T200, Ab captured via Fab-lambda, pH 7.4, 25C;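 also: antibodies captured on a streptavidin chip carrying biotinylated anti-Fab-lambda, with each FcγR injected as analyte in phosphate buffer. KD fitted by 1:1 Langmuir or steady-state model depending on receptor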
[25] = target: T9, human FcγRIIa H allotype extracellular …; test: as above
[26] = target: T10, human FcγRIIa R allotype extracellular …; test: as above
[27] = target: T11, human FcγRIa extracellular domain with …; test: as above
[28] = target: T12, human FcγRIIIa V allotype extracellular …; test: as above

T1 sequence (P12314 16-292): as the sequence (P12314 16-292) above

Relative value to KD between G1d and hFcgRs [1]: 54.3
Relative value to KD between G1d and hFcgRs [2]: 3.9
Relative value to KD between G1d and hFcgRs [3]: 1
Relative value to KD between G1d and hFcgRs [4]: 36.8
Relative value to KD between G1d and hFcgRs [5]: 1.8
Relative value to KD between G1d and hFcgRs [6]: 113
Kd [7]: 0.00166 nM
Kd [8]: 1180 nM
Kd [9]: 9.73 nM
Kd [10]: 935 nM
Kd [11]: 26.2 nM
A/I ratio (KD for FcγRIIb divided by KD for each FcγR) [12]: 2.2
A/I ratio (KD for FcγRIIb divided by KD for each FcγR) [13]: 266
A/I ratio (KD for FcγRIIb divided by KD for each FcγR) [14]: 2.8
A/I ratio (KD for FcγRIIb divided by KD for each FcγR) [15]: 98.7
Kd [16]: 2590 nM
B1: H240-Kn032/L73-k0//H240-Hl032/L73-k0 (antibody)
heavy 1: QDQLVQSGAEVKKPGASVKVSCKASGFNIKDTYIQWVRQAPGQGLEWMGRIDPLRKQTKYREKFEGRVTITADTSTNTAYMELSSLRSEDTAVYYCVRSGREFDYWGQGTLVTVSSASTKGPSVFPLAPSSKSTSGGTAALGCLVKDYFPEPVTVSWNSGALTSGVHTFPAVLQSSGLYSLSSVVTVPSSSLGTQTYICNVNHKPSNTKVDKKVEPKSCDKTHTCPPCPAPELLGGPDVFLFPPKPKDTLMISRTPEVTCVVVDVSHEDPEVKFNWYVDGVEVHNAKTKPREEQYNSTYRVVSVLTVLHQDWLNGKEYKCKVSNKALPLPEEKTISKAKGQPREPQVCTLPPSRDELTKNQVSLWCLVKGFYPSDIAVEWESNGQPENNYKTTPPVLDSDGSFFLYSKLTVDKSRWQQGNVFSCSVMHEALHNHYTQKSLSLSP
heavy 2: QDQLVQSGAEVKKPGASVKVSCKASGFNIKDTYIQWVRQAPGQGLEWMGRIDPLRKQTKYREKFEGRVTITADTSTNTAYMELSSLRSEDTAVYYCVRSGREFDYWGQGTLVTVSSASTKGPSVFPLAPSSKSTSGGTAALGCLVKDYFPEPVTVSWNSGALTSGVHTFPAVLQSSGLYSLSSVVTVPSSSLGTQTYICNVNHKPSNTKVDKKVEPKSCDKTHTCPPCPAPELLGGPDVFLFPPKPKDTLMISRTPEVTCVVVDVSHEDPEVKFNWYVDGVEVHNAKTKPREEQYNSTYRVVSVLTVLHQDWLNGKEYKCKVSNKALPLPEEKTISKAKGQPREPQVYTLPPSRCELTKNQVSLSCAVKGFYPSDIAVEWESNGQPENNYKTTPPVLDSDGSFFLVSKLTVDKSRWQQGNVFSCSVMHEALHNHYTQKSLSLSP
light: DIQMTQSPSSLSASVGDRVTITCRASQDIHKYIAWYQQKPGQAPRLLIQYTSTLQPGVPSRFSGSGSGTDYTFTISSLQPEDIATYYCLQYEQLRTFGGGTKVEIKRTVAAPSVFIFPPSDEQLKSGTASVVCLLNNFYPREAKVQWKVDNALQSGNSQESVTEQDSKDSTYSLSSTLTLSKADYEKHKVYACEVTHQGLSSPVTKSFNRGEC
notes: also called EGL-SDALIE; SDALIE

Relative binding amount [17]: 1.6
Relative value to KD between G1m and hFcγRs [18]: 79.5
Relative value to KD between G1m and hFcγRs [19]: 20.9
Relative value to KD between G1m and hFcγRs [20]: 9.2
Relative value to KD between G1m and hFcγRs [21]: 0.3
Relative value to KD between G1m and hFcγRs [22]: 45.8
Binding amount [23]: 0.013
Kd [24]: 17 nM
Kd [25]: 70 nM
Kd [26]: 220 nM
Kd [27]: 0.15 nM
Kd [28]: 5.2 nM
B2: 04H1637-Kn462/04L1610-lam1//04H1637-Hl441/04L1610-lam1 (antibody, human IgG1, lambda)
heavy 1: QVQLVESGGGLVKPGGSLRLSCAASGFTFSSKTMNWVRQAPGKGLEWVSSISTQSHYIYYAESVRGRFTISRDNAKNSLYLQMNSLRAEDTAVYYCARYGKREDMLWVFDYWGQGTLVTVSSASTKGPSVFPLAPSSKSTSGGTAALGCLVKDYFPEPVTVSWNSGALTSGVHTFPAVLQSSGLYSLSSVVTVPSSSLGTQTYICNVNHKPSNTKVDKKVEPKSCDKTHTCPPCPAPEFQWGPMVFLFPPKPKDVLMISRTPEVTCVVVDVSDEEPEVKFNWYVDGVEVHNAKTKPREEQYNATYRVVSVLPVLHQDWLNGKEYKCKVSNDALPAPIEKTISKAKGQPREPQVCTLPPSRDELTKNQVSLWCLVKGFYPSDIAVEWESNGQPENNYKTTPPVLDSDGSFFLYSKLTVDKSRWQQGNVFSCSVMHEALHNHYTQKSLSLSP
heavy 2: QVQLVESGGGLVKPGGSLRLSCAASGFTFSSKTMNWVRQAPGKGLEWVSSISTQSHYIYYAESVRGRFTISRDNAKNSLYLQMNSLRAEDTAVYYCARYGKREDMLWVFDYWGQGTLVTVSSASTKGPSVFPLAPSSKSTSGGTAALGCLVKDYFPEPVTVSWNSGALTSGVHTFPAVLQSSGLYSLSSVVTVPSSSLGTQTYICNVNHKPSNTKVDKKVEPKSCDKTHTCPPCPAPELLAGPSVFLFPPKPKDVLMISRTPEVTCVVVDVSHEEPEVKFNWYVDGVEVHNAKTKPREEQYNATYRVVSVLPVLHQDWLNGKEYKCKVSNDALPAPIEETISKAKGQPREPQVYTLPPSRCELTKNQVSLSCAVKGFYPSDIAVEWESNGQPENNYKTTPPVLDSDGSFFLVSKLTVDKSRWQQGNVFSCSVMHEALHNHYTQKSLSLSP
light: QSALTQPPSASGSPGQSVTISCEGPSTGVGDYNWVHWYQQHPGKAPKLMIYFTSKKPSGVPDRFSGSKSGNTASLTVSGLQAEDEADYYCQTYAAPLGPMFGGGTKLTVLGQPKAAPSVTLFPPSSEELQANKATLVCLISDFYPGAVTVAWKADSSPVKAGVETTTPSKQSNNKYAASSYLSLTPEQWKSHRSYSCQVTHEGSTVEKTVAPTECS
notes: Heterodimerized antibody; also called 04H1637-Kn462/04L1610-lam1//04H1637-H1441/04L1610-lam1

From patent publication US20260022175A1 (Chugai, published 2026)
